Experimental data reported in publication doi:10.1101/2024.05.24.595734 (bioRxiv, 2024).

B1: PrfA^WT (Listeria monocytogenes virulence master regulator PrfA) (natural protein)
chain: GAMNAQAEEFKKYLETNGIKPKQFHKKELIFNQWDPQEYCIFLYDGITKLTSISENGTIMNLQYYKGAFVIMSGFIDTETSVGYYNLEVISEQATAYVIKINELKELLSKNLTHFFYVFQTLQKQVSYSLAKFNDFSINGKLGSICGQLLILTYVYGKETPDGIKITLDNLTMQELGYSSGIAHSSAVSRIISKLKQEKVIVYKNSCFYVQNLDYLKRYAPKLDEWFYLACPATWGKLN

How the values were obtained:
[1] = target: PrfA^WT (Listeria monocytogenes virulence master regulator PrfA) (Listeria monocytogenes) (UniProt P22262); test: ITC
crystal structure = target: the molecule itself; test: crystal structure

Molecule | Kd [1] [µM] | binding result (crystal structure)
tripeptide EVF | 12 | –
STLL [tetrapeptide STLL] | 32 | –
EVFL [tetrapeptide EVFL] | 15 | –
RGLL [tetrapeptide RGLL] | 145 | –
B1 | – | binds
